In patent US20160032013A1 (Genentech, published 2016):
Changes are numbered by the printed parent chain. In names and notes the source's numbering stands. Blank lines part the entries; values can stand above or below the binder they belong to.

Experiments:
[1] = biological target: T1, Mouse RON-hIgG1 Fc (murine RON Sema/PSI/IPT1, natural leader + R33-V684, fused to human IgG1 Fc) (mouse); assay: SPR (Biacore), anti-Fc chip; legend names murine RON-Fc; the sheet's scheme ('RON or MSP' over 'MSP-Fc or RON-Fc') and have the MSPβ-Fc fusion captured and soluble RON-His injected
T1 construct: also called mRON-hFc; murine RON-Fc
T1 sequence (chain, as listed by the source limits assumed): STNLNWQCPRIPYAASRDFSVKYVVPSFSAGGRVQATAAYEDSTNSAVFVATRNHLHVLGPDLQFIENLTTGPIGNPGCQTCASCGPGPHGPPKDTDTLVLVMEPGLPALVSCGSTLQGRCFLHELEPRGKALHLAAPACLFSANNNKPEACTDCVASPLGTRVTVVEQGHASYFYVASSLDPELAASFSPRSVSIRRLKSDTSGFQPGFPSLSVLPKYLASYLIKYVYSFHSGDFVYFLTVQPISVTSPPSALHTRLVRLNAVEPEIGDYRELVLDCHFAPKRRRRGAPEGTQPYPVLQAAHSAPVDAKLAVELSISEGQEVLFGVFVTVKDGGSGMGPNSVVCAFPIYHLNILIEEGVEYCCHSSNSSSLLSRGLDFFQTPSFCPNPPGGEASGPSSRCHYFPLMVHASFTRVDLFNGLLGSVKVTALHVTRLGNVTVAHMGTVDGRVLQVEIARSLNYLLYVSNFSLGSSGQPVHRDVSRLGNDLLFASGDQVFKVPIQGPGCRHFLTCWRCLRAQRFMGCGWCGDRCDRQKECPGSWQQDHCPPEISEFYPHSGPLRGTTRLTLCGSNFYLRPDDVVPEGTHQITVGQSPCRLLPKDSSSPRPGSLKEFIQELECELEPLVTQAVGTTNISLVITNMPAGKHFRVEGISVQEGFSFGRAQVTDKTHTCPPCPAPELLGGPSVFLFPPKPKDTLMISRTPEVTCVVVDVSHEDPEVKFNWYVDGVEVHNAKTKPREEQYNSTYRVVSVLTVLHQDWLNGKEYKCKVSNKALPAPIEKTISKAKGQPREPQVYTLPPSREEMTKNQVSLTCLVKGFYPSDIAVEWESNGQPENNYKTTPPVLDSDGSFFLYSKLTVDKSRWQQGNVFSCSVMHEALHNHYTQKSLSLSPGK
Procedure: Binding kinetics of RON to MSP β-Fc fusion proteins and MSP proteins to RON-Fc fusions were determined using a Biacore 3000 optical biosensor equipped with a research-grade CM5 sensor chip (GE Healthcare). Amine coupling reagents, N-ethyl-N′-dimethylamino-propylcarbodiimide (EDC), N-hydroxy-succinimide (NHS) and sodium ethanolamine HCl, pH 8.5, were obtained from GE Healthcare. Standard coupling protocols were used to tether a rabbit anti-human IgG1 or rabbit anti-murine IgG2a (Jackson ImmunoResearch Laboratories) onto the biosensor surface. A biosensor chip that was subjected to the amine coupling procedure with no protein coupled was used to correct for non-specific binding. […] Various concentrations (500-3.9 nM, 2-fold dilution series) of RON-His, were injected in HBS-P buffer (10 mM HEPES, pH 7.5, 150 mM NaCl, 0.005% P20) at 25° C. with a flow rate of 30 μL/min and dissociation monitored for 240 sec. Between measurements, the biosensor surfaces were regenerated with a 120 s pulse of 10 mM glycine-HCl pH 1.5 followed by a 120 s wash with running buffer.

[2] = biological target: T2, Human RON-hIgG1 Fc (RON Sema/PSI/IPT1 fused to human IgG1 Fc) (human); assay: SPR capturing RON-Fc at 25 C
T2 construct: also called RON-Fc; hRON-Fc
T2 sequence (chain, as listed by the source limits assumed): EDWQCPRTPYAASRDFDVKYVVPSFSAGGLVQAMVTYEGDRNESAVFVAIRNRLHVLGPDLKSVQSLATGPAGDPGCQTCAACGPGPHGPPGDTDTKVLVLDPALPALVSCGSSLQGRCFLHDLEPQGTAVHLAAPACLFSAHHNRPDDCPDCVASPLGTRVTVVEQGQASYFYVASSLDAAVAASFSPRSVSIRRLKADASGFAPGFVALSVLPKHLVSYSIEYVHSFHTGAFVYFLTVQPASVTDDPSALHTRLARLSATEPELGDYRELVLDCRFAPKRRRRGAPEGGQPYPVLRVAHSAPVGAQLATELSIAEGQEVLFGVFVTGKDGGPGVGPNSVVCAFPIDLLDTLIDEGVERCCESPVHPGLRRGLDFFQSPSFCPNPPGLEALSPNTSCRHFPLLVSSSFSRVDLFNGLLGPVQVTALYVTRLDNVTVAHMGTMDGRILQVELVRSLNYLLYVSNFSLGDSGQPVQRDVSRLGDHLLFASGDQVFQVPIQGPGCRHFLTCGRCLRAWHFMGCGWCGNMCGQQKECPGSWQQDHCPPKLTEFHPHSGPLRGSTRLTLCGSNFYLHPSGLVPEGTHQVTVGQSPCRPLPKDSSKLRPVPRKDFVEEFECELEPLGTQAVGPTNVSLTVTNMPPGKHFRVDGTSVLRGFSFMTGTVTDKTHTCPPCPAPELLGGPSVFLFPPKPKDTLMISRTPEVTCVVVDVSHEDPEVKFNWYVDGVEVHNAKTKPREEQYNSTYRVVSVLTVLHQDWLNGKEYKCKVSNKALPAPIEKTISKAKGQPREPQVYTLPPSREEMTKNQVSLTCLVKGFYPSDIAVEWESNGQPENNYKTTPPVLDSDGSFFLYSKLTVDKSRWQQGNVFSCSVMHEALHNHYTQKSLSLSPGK
Procedure: To determine MSP protein binding kinetics to hRON-Fc or mRON-Fc fusion proteins, between 50 and 100 response units (RU) were captured on each of three immobilized anti-human Fc surfaces. Various concentrations (50-0.78 nM, 2-fold dilution series) of MSP, MSP β, MSP α or scMSP were injected in HBS-P buffer (10 mM HEPES, pH 7.5, 150 mM NaCl, 0.005% P20) at 25° C. with a flow rate of 30 μL/min and dissociation monitored for 4 min. Between measurements, the biosensor surfaces were regenerated with a 2 min pulse of 10 mM glycine-HCl pH 1.5.

[3] = biological target: T2, Human RON-hIgG1 Fc (RON Sema/PSI/IPT1 …); assay: BLI using RON-Fc at 30 C
Procedure: Real-time kinetic measurements of MSP binding to RON were conducted using an Octet RED384 (ForteBio, Inc). Samples or buffer were dispensed into 96-well microtiter plates (Greiner Bio-One North America, Inc.) at a volume of 200 μl per well. Anti-human IgG Fc Biosensors were used for the experiments. Each experiment consisted of three steps: incubation with ForteBio Kinetic buffer diluted 1:10 in PBS assay buffer to establish an equilibrium for 120 s (baseline), incubation with 10 μg/ml RON-Fc in assay buffer to coat the biosensor with binding target for 900 s (load), incubation with MSP, MSP β or scMSP in assay buffer containing various concentrations (75-4.7 nM, 2-fold dilution series) for 400 s (association), and incubation with assay buffer to measure the off-rate of MSP for 400 s (dissociation). Operating temperature was maintained at 30° C. Data were generated automatically by the Octet Data Acquisition 7.0 software. Each data set was fitted globally to a simple one-to-one binding model using ForteBio Analysis Software 7.0 to determine the kinetic parameters kₐ and kd. The equilibrium dissociation constants (KD) were then calculated as a ratio (koff/kₒₙ) of these rate constants.

[4] = biological target: T3, Recombinant human RON Sema/PSI (residues E25-P568) with C-terminal His-tag (human, UniProt Q04912 25-568); assay: SPR using immobilized RON Sema/PSI at 25 C
T3 construct: Made in Trichoplusia ni insect cells

- Kd [1]: 9.7 nM
B1: m.L12.m DANA (Fc fusion)
MSP β-linker-Fc fusion chain: VVGGHPGNSPWTVSLRNRQGQHFCGGSLVKEQWVLTARQCIWSCHEPLTGYEVWLGTINQNPQPGEANLQRVPVAKAVCGPAGSQLVLLKLERPVILNHHVALIALPPEQYVVPPGTKCEIAGWGESIGTSNNTVLHVASMNVISNQECNTKYRGHIQESEICTQGLVVPVGACEGDYGGPLACYTHDAWVLQGLIIPNRVCARPRWPAIFTRVSVFVDWINKVMQLEKKIEPRGPTIKPCPPCKCPAPNLLGGPSVFIFPPKIKDVLMISLSPIVTCVVVAVSEDDPDVQISWFVNNVEVHTAQTQTHREDYASTLRVVSALPIQHQDWMSGKEFKCKVNNKDLPAPIERTISKPKGSVRAPQVYVLPPPEEEMTKKQVTLTCMVTDFMPEDIYVEWTNNGKTELNYKNTEPVLDSDGSYFMYSKLRVEKKNWVERNSYSCSVVHEGLHNHHTTKSFSRTPGK
notes: As m12m, with the DANA mutations in the Fc; also called m12m (DANA); Mouse MSP β-L12-mIgG2a Fc (DANA)

- Kd [2]: 9 nM
- koff [2]: 0.0479 s⁻¹
- kon [2]: 5.75e+06 M⁻¹ s⁻¹
- Kd [3]: 9.1 nM
- koff [3]: 0.0093 s⁻¹
- kon [3]: 1.75e+06 M⁻¹ s⁻¹
- Kd [4]: 9.1 nM
- koff [4]: 0.0142 s⁻¹
- kon [4]: 1.3e+06 M⁻¹ s⁻¹
B2: Human MSP β R689C (HGF leader + V484-G711 + C588S + C672A + R689C + His tag) (ligand)
chain: VVGGHPGNSPWTVSLRNRQGQHFCGGSLVKEQWILTARQCFSSCHMPLTGYEVWLGTLFQNPQHGEPSLQRVPVAKMVCGPSGSQLVLLKLERSVTLNQRVALISLPPEWYVVPPGTKCEIAGWGETKGTGNDTVLNVALLNVISNQECNIKHRGRVRESEMCTEGLLAPVGACEGDYGGPLACFTHNAWVLEGIIIPNRVCARSCWPAVFTRVSVFVDWIHKVMRLGHHHHHH
notes: This is an inference

- Kd [1]: 11.6 nM
B3: h.L16.m (Fc fusion)
MSP β-linker-Fc fusion chain: VVGGHPGNSPWTVSLRNRQGQHFCGGSLVKEQWILTARQCFSSCHMPLTGYEVWLGTLFQNPQHGEPSLQRVPVAKMVCGPSGSQLVLLKLERSVTLNQRVALISLPPEWYVVPPGTKCEIAGWGETKGTGNDTVLNVALLNVISNQECNIKHRGRVRESEMCTEGLLAPVGACEGDYGGPLACFTHNAWVLEGIIIPNRVCARSRWPAVFTRVSVFVDWIHKVMRLGQVTDKKIEPRGPTIKPCPPCKCPAPNLLGGPSVFIFPPKIKDVLMISLSPIVTCVVVDVSEDDPDVQISWFVNNVEVHTAQTQTHREDYNSTLRVVSALPIQHQDWMSGKEFKCKVNNKDLPAPIERTISKPKGSVRAPQVYVLPPPEEEMTKKQVTLTCMVTDFMPEDIYVEWTNNGKTELNYKNTEPVLDSDGSYFMYSKLRVEKKNWVERNSYSCSVVHEGLHNHHTTKSFSRTPGK
notes: Human MSP β joined by a 16-residue linker to murine IgG2a Fc; also called h16m; Human MSP β-L16-mIgG2a Fc

- Kd [1]: 10.9 nM
B4: h.L16.m DANA (Fc fusion)
MSP β-linker-Fc fusion chain: B3 MSP β-linker-Fc fusion chain with A189S, D286A, N318A
notes: As h16m, with the D265A and N297A (DANA) mutations in the Fc; also called h16m (DANA); Human MSP β-L16-mIgG2a Fc (DANA)

- Kd [1]: 6.6 nM
B5: m.L16.m DANA (Fc fusion)
MSP β-linker-Fc fusion chain: VVGGHPGNSPWTVSLRNRQGQHFCGGSLVKEQWVLTARQCIWSCHEPLTGYEVWLGTINQNPQPGEANLQRVPVAKAVCGPAGSQLVLLKLERPVILNHHVALIALPPEQYVVPPGTKCEIAGWGESIGTSNNTVLHVASMNVISNQECNTKYRGHIQESEICTQGLVVPVGACEGDYGGPLACYTHDAWVLQGLIIPNRVCARPRWPAIFTRVSVFVDWINKVMQLEQVTDKKIEPRGPTIKPCPPCKCPAPNLLGGPSVFIFPPKIKDVLMISLSPIVTCVVVAVSEDDPDVQISWFVNNVEVHTAQTQTHREDYASTLRVVSALPIQHQDWMSGKEFKCKVNNKDLPAPIERTISKPKGSVRAPQVYVLPPPEEEMTKKQVTLTCMVTDFMPEDIYVEWTNNGKTELNYKNTEPVLDSDGSYFMYSKLRVEKKNWVERNSYSCSVVHEGLHNHHTTKSFSRTPGK
notes: As m16m, with the DANA mutations in the Fc; also called m16m (DANA); Mouse MSP β-L16-mIgG2a Fc (DANA)

- Kd [1]: 13.8 nM
B6: m.L4.m DANA (Fc fusion)
MSP β-linker-Fc fusion chain: VVGGHPGNSPWTVSLRNRQGQHFCGGSLVKEQWVLTARQCIWSCHEPLTGYEVWLGTINQNPQPGEANLQRVPVAKAVCGPAGSQLVLLKLERPVILNHHVALIALPPEQYVVPPGTKCEIAGWGESIGTSNNTVLHVASMNVISNQECNTKYRGHIQESEICTQGLVVPVGACEGDYGGPLACYTHDAWVLQGLIIPNRVCARPRWPAIFTRVSVFVDWINKVMQLETIKPCPPCKCPAPNLLGGPSVFIFPPKIKDVLMISLSPIVTCVVVAVSEDDPDVQISWFVNNVEVHTAQTQTHREDYASTLRVVSALPIQHQDWMSGKEFKCKVNNKDLPAPIERTISKPKGSVRAPQVYVLPPPEEEMTKKQVTLTCMVTDFMPEDIYVEWTNNGKTELNYKNTEPVLDSDGSYFMYSKLRVEKKNWVERNSYSCSVVHEGLHNHHTTKSFSRTPGK
notes: As m4m, with the DANA mutations in the Fc; also called m4m (DANA); Mouse MSP β-L4-mIgG2a Fc (DANA)

- Kd [1]: 5 nM
B7: m.L8.m DANA (Fc fusion)
MSP β-linker-Fc fusion chain: VVGGHPGNSPWTVSLRNRQGQHFCGGSLVKEQWVLTARQCIWSCHEPLTGYEVWLGTINQNPQPGEANLQRVPVAKAVCGPAGSQLVLLKLERPVILNHHVALIALPPEQYVVPPGTKCEIAGWGESIGTSNNTVLHVASMNVISNQECNTKYRGHIQESEICTQGLVVPVGACEGDYGGPLACYTHDAWVLQGLIIPNRVCARPRWPAIFTRVSVFVDWINKVMQLEPRGPTIKPCPPCKCPAPNLLGGPSVFIFPPKIKDVLMISLSPIVTCVVVAVSEDDPDVQISWFVNNVEVHTAQTQTHREDYASTLRVVSALPIQHQDWMSGKEFKCKVNNKDLPAPIERTISKPKGSVRAPQVYVLPPPEEEMTKKQVTLTCMVTDFMPEDIYVEWTNNGKTELNYKNTEPVLDSDGSYFMYSKLRVEKKNWVERNSYSCSVVHEGLHNHHTTKSFSRTPGK
notes: As m8m, with the DANA mutations in the Fc; also called m8m (DANA); Mouse MSP β-L8-mIgG2a Fc (DANA)
